Reference: PMC9346951 (Nature, 2022)
Changes are numbered by the printed parent chain. Numbers in names are those of the source. Read-outs that look alike come from different tables or passages of the source. One block for each molecule: values may come before it.

Key:
TGA3 NID = target: T1, TGA3 NID (Arabidopsis thaliana, UniProt Q39234); experiment: X-ray crystal structure; assay type: binding; details: co-purified from E. coli expression; crystals at pH 5.0, 20 °C
T1 sequence (Q39234 160-384): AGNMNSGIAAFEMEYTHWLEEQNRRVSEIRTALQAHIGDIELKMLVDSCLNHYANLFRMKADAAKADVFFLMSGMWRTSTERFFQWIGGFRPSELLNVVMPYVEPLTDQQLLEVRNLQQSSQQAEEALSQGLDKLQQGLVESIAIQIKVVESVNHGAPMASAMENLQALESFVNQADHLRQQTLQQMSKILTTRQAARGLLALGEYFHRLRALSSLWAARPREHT

NPR1 = NPR1 (Arabidopsis thaliana, UniProt P93002 1-593); experiment: EMSA
TGA3;NPR1 = TGA3;NPR1 (Arabidopsis thaliana;Arabidopsis …, UniProt Q39234;P93002 87-384;1-593, |); experiment: EMSA
TGA3 [1] = target: T2, TGA3 (Arabidopsis thaliana, UniProt Q39234 87-384); experiment: EMSA
T2 sequence: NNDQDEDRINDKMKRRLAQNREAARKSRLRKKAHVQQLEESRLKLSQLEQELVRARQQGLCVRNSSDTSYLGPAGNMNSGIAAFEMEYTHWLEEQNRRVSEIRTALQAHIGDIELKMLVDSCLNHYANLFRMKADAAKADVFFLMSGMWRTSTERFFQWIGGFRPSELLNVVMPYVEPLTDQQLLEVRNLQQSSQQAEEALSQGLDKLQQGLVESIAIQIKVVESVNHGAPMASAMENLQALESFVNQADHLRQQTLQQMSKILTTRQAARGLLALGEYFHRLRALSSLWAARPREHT

[2] = target: T3, Full-length Arabidopsis thaliana NPR1 (NPR1–Strep, insect cells) (Arabidopsis thaliana), P93002; experiment: cross-linking; details: remark: other sources report otherwise
T3 chain: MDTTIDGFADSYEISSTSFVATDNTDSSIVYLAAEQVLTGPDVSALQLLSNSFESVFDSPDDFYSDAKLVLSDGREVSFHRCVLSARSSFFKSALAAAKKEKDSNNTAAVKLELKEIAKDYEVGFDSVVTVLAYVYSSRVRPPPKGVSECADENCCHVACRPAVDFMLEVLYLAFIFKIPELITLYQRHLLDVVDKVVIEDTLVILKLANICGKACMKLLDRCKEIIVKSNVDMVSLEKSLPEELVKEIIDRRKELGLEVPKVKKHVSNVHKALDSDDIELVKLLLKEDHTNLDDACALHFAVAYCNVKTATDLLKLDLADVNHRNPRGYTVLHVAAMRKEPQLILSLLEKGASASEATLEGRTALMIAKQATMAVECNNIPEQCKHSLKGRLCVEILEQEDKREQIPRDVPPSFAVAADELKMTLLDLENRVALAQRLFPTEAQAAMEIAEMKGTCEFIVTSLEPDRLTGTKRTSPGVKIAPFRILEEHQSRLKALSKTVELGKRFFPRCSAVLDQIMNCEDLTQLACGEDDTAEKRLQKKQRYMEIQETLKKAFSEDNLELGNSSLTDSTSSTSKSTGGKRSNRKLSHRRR

[3] = target: the molecule itself; experiment: oxidation with hydrogen peroxide, non-reducing SDS–PAGE
TGA3 [4] = target: T2, TGA3; experiment: EMSA; remark: listed apart in the source
[5] = target: T4, Full-length Arabidopsis NPR1 (NPR1–Strep3, E. coli) (Arabidopsis thaliana, UniProt P93002 1-593); experiment: cryo-EM structure
T4 sequence (looked up): T3 chain

X-ray crystal structure (1.5 Å); LC-ESI/MS of extracted lipid (TGA3 NID): a palmitic acid was found inside the NID
Molecule: CCCCCCCCCCCCCCCC(=O)O [palmitic acid]

B1: LS5/LS7 (dsDNA)
DNA 1: GGGCTATGACGTAAGTAAAATAGTGACGTAGAGAGGG
DNA 2: CCCTCTCTACGTCACTATTTTACTTACGTCATAGCCC
binding result (NPR1): no binding
binding result (TGA3;NPR1): binds
binding result (TGA3 [1]): binds

stoichiometry N [2]: 2
B2: Full-length Arabidopsis thaliana NPR1 (NPR1–Strep, insect cells), P93002 1-593 (natural protein)
chain: T3 chain

B3: NPR1 BTB/BHB (Thr39–Lys262) npr1(C82A) (domain or fragment, Arabidopsis thaliana, UniProt P93002 39-262, looked up)
chain: TGPDVSALQLLSNSFESVFDSPDDFYSDAKLVLSDGREVSFHRAVLSARSSFFKSALAAAKKEKDSNNTAAVKLELKEIAKDYEVGFDSVVTVLAYVYSSRVRPPPKGVSECADENCCHVACRPAVDFMLEVLYLAFIFKIPELITLYQRHLLDVVDKVVIEDTLVILKLANICGKACMKLLDRCKEIIVKSNVDMVSLEKSLPEELVKEIIDRRKELGLEVPK
binding result [3]: binds

B4: WT NPR1 BTB/BHB (Thr39–Lys262) (domain or fragment, Arabidopsis thaliana, UniProt P93002 39-262, looked up)
chain: B3 chain with A44C
binding result [3]: binds

B5: NPR1 BTB/BHB (Thr39–Lys262) npr1(C212V/C216A/C223L) (domain or fragment, Arabidopsis thaliana, UniProt P93002 39-262, looked up)
chain: B3 chain with A44C, C174V, C178A, C185L
binding result [3]: binds

B6: LS5-/LS7- (dsDNA)
DNA 1: GGGCTAAAAAAAAAGTAAAATAGAAAAAAAAAGAGGG
DNA 2: CCCTCTTTTTTTTTCTATTTTACTTTTTTTTTAGCCC
binding result (TGA3 [4]): no binding

binding result [5]: binds
B7: Arabidopsis TGA3 (Asn87–Thr384) (domain or fragment, Arabidopsis thaliana, UniProt Q39234 87-384, looked up)
chain: T2 sequence
